{"source": "patent US20190375823A1", "about": "(Zymeworks, published 2019)", "key": {"Human FcRn (hFcRn)": {"target": "T1, Human FcRn (hFcRn) (human, UniProt P55899 24-297; P61769 21-119, limits assumed)", "T1 construct": "also called neonatal Fc receptor", "T1 sequence (P55899 24-297 limits assumed, chain 1 of 2)": "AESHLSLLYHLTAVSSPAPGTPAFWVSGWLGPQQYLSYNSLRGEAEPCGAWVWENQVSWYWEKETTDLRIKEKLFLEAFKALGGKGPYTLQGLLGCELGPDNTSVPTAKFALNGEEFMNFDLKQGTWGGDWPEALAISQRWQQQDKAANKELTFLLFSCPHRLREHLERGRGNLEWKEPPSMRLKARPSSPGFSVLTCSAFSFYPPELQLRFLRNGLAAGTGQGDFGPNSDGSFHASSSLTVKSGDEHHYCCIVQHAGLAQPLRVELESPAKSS", "T1 sequence (P61769 21-119 limits assumed, chain 2 of 2)": "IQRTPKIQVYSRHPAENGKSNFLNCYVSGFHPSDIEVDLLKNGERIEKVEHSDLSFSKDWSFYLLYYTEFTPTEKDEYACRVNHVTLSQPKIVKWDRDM", "assay": "SPR, hFcRn immobilized, v1378 flowed over at pH 6.0", "excerpt": "Methods are identical to Example 2, except the directionality of the assay was reversed."}, "[1]": {"target": "the molecule itself", "assay": "native gel after co-expression (1:1 DNA level)"}, "CD19 on Raji B cells": {"target": "T2, CD19 on Raji B cells (UniProt P15391 20-556, limits assumed)", "T2 construct": "whole, on cells; also called Raji CD19 B cells", "T2 sequence (looked up)": "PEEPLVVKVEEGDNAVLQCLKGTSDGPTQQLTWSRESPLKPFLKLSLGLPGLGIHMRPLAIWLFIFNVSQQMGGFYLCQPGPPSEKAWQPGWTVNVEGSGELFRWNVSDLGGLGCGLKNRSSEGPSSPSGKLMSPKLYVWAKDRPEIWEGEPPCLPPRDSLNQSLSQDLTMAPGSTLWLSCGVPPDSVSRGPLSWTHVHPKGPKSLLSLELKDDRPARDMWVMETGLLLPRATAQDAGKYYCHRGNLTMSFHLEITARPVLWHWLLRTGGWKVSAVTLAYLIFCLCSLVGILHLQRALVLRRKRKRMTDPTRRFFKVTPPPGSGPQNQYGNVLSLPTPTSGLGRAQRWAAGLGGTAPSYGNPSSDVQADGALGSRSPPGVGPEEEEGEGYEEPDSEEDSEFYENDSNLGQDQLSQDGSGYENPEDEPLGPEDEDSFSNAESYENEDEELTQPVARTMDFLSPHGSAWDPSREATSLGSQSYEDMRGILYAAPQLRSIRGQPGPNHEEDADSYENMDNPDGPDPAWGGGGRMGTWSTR", "assay": "FACS on Raji cells (CD19)"}}, "data": [{"binder": "v1378: AlbuCORE_1 (ABH2) with anti-HER3 at the N terminus of fragment 1 and anti-HER2 (4D5) at the N terminus of fragment 2 (bispecific antibody, also called variant 1378; anti-Her3xHer2 ABH2) chain 1: QVQLQESGGGLVKPGGSLRLSCAASGFTFSSYWMSWVRQAPGKGLEWVANINRDGSASYYVDSVKGRFTISRDDAKNSLYLQMNSLRAEDTAVYYCARDRGVGYFDLWGRGTLVTVSSASTGGGGSGGGGSGGGGSQSALTQPASVSGSPGQSITISCTGTSSDVGGYNFVSWYQQHPGKAPKLMIYDVSDRPSGVSDRFSGSKSGNTASLIISGLQADDEADYYCSSYGSSSTHVIFGGGTKVTVLGGGSDAHKSEVAHRFKDLGEENFKALVLIAFAQYLQQCPFEDHVKLVNEVTEFAKTCVADESAENCDKSLHTLFGDKLCTVATLRETYGEMADCCAKQEPERNECFLQHKDDNPNLPRLVRPEVDVMCTAFHDNEETFLKKYLYEIARRHPYFYAPELLFFAKRYKAAFTECCQAADKAACLLPKLDELRDEGKASSAKQRLKCASLQKFGERAFKAWAVARLSQRFPKAEFAEVSKLVTDLTKVHTECCHGDLLECADDRADLAKYICENQDSISSKLKECCEKPLLEKSHCIAEVENDEMPADLPSLAADFVESKDVCKNYAEAKDVFLGMFLYEYARA chain 2: not shown", "values": [{"measurement": "Kd", "setting": "Human FcRn (hFcRn)", "value": 970, "unit": "nM"}]}, {"binder": "Albumin based Transporter polypeptide 1-Ver 1 (ABH1 fragment, albumin 1:293) (other, also called ABH1 transporter polypeptide A; ABH1 fragment 1) DAHKSEVAHRFKDLGEENFKALVLIAFAQYLQQCPFEDHVKLVNEVTEFAKTCVADESAENCDKSLHTLFGDKLCTVATLRETYGEMADCCAKQEPERNECFLQHKDDNPNLPRLVRPEVDVMCTAFHDNEETFLKKYLYEIARRHPYFYAPELLFFAKRYKAAFTECCQAADKAACLLPKLDELRDEGKASSAKQRLKCASLQKFGERAFKAWAVARLSQRFPKAEFAEVSKLVTDLTKVHTECCHGDLLECADDRADLAKYICENQDSISSKLKECCEKPLLEKSHCIAEV", "values": [{"measurement": "binding result", "setting": "[1]", "value": "no binding"}]}, {"binder": "V1093 (bispecific antibody) anti-CD19 scFv fused to the N terminus of transporter polypeptide 1 (albumin 1-337): DIQLTQSPASLAVSLGQRATISCKASQSVDYDGDSYLNWYQQIPGQPPKLLIYDASNLVSGIPPRFSGSGSGTDFTLNIHPVEKVDAATYHCQQSTEDPWTFGGGTKLEIKGGGGSGGGGSGGGGSQVQLQQSGAELVRPGSSVKISCKASGYAFSSYWMNWVKQRPGQGLEWIGQIWPGDGDTNYNGKFKGKATLTADESSSTAYMQLSSLASEDSAVYFCARRETTTVGRYYYAMDYWGQGTTVTVSSGGSDAHKSEVAHRFKDLGEENFKALVLIAFAQYLQQCPFEDHVKLVNEVTEFAKTCVADESAENCDKSLHTLFGDKLCTVATLRETYGEMADCCAKQEPERNECFLQHKDDNPNLPRLVRPEVDVMCTAFHDNEETFLKKYLYEIARRHPYFYAPELLFFAKRYKAAFTECCQAADKAACLLPKLDELRDEGKASSAKQRLKCASLQKFGERAFKAWAVARLSQRFPKAEFAEVSKLVTDLTKVHTECCHGDLLECADDRADLAKYICENQDSISSKLKECCEKPLLEKSHCIAEVENDEMPADLPSLAADFVESKDVCKNYAEAKDVFLGMFLYEYARA transporter polypeptide 2 (albumin 342-585) with anti-CD3 scFv at the C terminus: not shown", "values": [{"measurement": "Kd", "setting": "CD19 on Raji B cells", "value": 49, "unit": "nM"}]}]}
